Laboratory results taken from publication PMC3433420.
pKd: −log10 of the molar value. Where “and” joins values, the source holds several entries; their conditions need not be identical. Equal entries are not always repeated. Where two headings read alike, the source gives them in different places. Each block holds one substance with its values, some of them ahead of it.

Columns and labels:
BLK (Homo sapiens) = BLK (Homo sapiens) (UniProt P51451); details: cited from earlier work
VAV2 (Homo sapiens) = VAV2 (Homo sapiens) (UniProt P52735); details: cited from earlier work
PIK3R3-NC (Homo sapiens) = PIK3R3-NC (Homo sapiens) (UniProt Q92569); details: cited from earlier work
RASA1-NC (Homo sapiens) = RASA1-NC (Homo sapiens) (UniProt P20936); details: cited from earlier work
PTPN6-C (Homo sapiens) = PTPN6-C (Homo sapiens) (UniProt P29350); details: cited from earlier work
NCK2 (Homo sapiens) = NCK2 (Homo sapiens) (UniProt O43639); details: cited from earlier work
PLCG1-NC (Homo sapiens) [1] = biological target: PLCG1-NC (Homo sapiens) (UniProt P19174); details: cited from earlier work
SYK-NC (Homo sapiens) = SYK-NC (Homo sapiens) (UniProt P43405); details: cited from earlier work
TENC1 (Homo sapiens) [2] = biological target: TENC1 (Homo sapiens) (UniProt Q63HR2); details: cited from earlier work
LYN (Homo sapiens) = LYN (Homo sapiens) (UniProt P07948); details: cited from earlier work
[3] = biological target: SYK C-terminal SH2 domain (human); assay: peptide or protein array; SH2/PTB proteins spotted on aldehyde slides, rhodamine peptide titrated in buffer B (20 mM HEPES, 100 mM KCl, 0.1% Tween-20, 5 mM DTT, pH 7.8), 1 h at room temperature; replicate assays
[4] = biological target: ZAP70 C-terminal SH2 domain (human) (UniProt P43403); assay: as above
GRAP2 SH2 domain (human) = GRAP2 SH2 domain (human) (UniProt O75791); assay: as above
[5] = biological target: SH2D3A SH2 domain (human) (UniProt Q9BRG2); assay: as above
[6] = biological target: RASA1 N-terminal SH2 domain (human) (UniProt P20936); assay: as above
[7] = biological target: PLCG2 tandem SH2 domains (human); assay: as above
[8] = biological target: SH2D2A SH2 domain (human) (UniProt Q9NP31); assay: as above
NCK1 SH2 domain (human) = NCK1 SH2 domain (human) (UniProt P16333); assay: as above
BLK SH2 domain (human) = BLK SH2 domain (human) (UniProt P51451); assay: as above
RASA1-N (Homo sapiens) = RASA1-N (Homo sapiens) (UniProt P20936); details: cited from earlier work
PLCG1-NC (Homo sapiens) [9] = biological target: PLCG1-NC (Homo sapiens) (UniProt P19174); details: cited from earlier work; remark: listed apart in the source
SLA (Homo sapiens) = SLA (Homo sapiens) (UniProt Q13239); details: cited from earlier work
TXK (Homo sapiens) = TXK (Homo sapiens) (UniProt P42681); details: cited from earlier work
SHF (Homo sapiens) = SHF (Homo sapiens) (UniProt Q7M4L6); details: cited from earlier work
GRB10 (Homo sapiens) = GRB10 (Homo sapiens) (UniProt Q13322); details: cited from earlier work
TENC1 (Homo sapiens) [10] = biological target: TENC1 (Homo sapiens) (UniProt Q63HR2); details: cited from earlier work; remark: listed apart in the source

Sequence of PLCG1-NC (Homo sapiens) (P19174 545-761): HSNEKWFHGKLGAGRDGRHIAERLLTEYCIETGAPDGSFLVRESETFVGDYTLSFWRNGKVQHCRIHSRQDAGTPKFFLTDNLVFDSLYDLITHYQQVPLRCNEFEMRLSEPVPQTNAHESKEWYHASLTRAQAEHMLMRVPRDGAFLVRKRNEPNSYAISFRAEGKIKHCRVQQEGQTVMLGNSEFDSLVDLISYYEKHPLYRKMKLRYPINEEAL
Sequence of BLK SH2 domain (human) (P51451 124-220): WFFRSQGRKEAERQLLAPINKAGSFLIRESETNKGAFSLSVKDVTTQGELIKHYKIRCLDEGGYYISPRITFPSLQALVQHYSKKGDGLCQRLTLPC
Sequence of TENC1 (Homo sapiens) (Q63HR2 1135-1252): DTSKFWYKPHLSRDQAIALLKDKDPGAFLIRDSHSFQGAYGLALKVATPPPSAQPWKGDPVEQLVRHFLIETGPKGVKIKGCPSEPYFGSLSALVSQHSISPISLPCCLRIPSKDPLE
Sequence of GRAP2 SH2 domain (human) (O75791 58-149): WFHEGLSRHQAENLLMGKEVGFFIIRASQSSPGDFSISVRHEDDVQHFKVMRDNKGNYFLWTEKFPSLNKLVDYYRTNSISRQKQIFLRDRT
Sequence of SH2D3A SH2 domain (human) (Q9BRG2 15-114): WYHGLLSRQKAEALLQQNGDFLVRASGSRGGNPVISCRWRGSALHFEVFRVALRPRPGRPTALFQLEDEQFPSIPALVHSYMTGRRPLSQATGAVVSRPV
Sequence of RASA1 N-terminal SH2 domain (human) (P20936 whole entry, the tested form may be a part): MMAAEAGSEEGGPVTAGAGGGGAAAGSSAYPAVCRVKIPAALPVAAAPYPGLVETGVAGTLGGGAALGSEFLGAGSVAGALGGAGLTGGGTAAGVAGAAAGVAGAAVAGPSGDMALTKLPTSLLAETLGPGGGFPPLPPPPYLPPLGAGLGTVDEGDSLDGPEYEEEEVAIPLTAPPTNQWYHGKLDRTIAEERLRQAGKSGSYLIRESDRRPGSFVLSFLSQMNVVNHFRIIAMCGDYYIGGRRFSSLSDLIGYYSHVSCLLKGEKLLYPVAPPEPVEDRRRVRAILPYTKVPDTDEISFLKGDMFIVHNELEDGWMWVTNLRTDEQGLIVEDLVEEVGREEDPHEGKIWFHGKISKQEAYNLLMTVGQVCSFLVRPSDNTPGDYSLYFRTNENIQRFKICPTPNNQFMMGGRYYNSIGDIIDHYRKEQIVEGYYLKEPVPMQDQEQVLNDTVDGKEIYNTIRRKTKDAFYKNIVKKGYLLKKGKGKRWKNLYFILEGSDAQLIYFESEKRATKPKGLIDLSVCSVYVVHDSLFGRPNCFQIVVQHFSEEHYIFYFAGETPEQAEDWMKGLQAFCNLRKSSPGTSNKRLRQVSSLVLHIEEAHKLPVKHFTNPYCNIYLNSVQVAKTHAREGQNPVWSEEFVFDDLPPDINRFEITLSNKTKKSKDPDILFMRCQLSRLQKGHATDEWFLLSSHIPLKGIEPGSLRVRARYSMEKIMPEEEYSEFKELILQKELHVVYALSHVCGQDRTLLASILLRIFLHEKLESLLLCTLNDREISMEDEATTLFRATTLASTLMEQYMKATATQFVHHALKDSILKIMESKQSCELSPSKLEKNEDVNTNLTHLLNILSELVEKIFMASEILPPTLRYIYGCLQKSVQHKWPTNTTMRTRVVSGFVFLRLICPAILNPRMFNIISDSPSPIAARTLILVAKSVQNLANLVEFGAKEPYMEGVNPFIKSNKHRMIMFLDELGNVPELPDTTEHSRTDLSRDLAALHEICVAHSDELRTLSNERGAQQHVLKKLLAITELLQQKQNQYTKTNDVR
Sequence of ZAP70 C-terminal SH2 domain (human) (P43403 whole entry, the tested form may be a part): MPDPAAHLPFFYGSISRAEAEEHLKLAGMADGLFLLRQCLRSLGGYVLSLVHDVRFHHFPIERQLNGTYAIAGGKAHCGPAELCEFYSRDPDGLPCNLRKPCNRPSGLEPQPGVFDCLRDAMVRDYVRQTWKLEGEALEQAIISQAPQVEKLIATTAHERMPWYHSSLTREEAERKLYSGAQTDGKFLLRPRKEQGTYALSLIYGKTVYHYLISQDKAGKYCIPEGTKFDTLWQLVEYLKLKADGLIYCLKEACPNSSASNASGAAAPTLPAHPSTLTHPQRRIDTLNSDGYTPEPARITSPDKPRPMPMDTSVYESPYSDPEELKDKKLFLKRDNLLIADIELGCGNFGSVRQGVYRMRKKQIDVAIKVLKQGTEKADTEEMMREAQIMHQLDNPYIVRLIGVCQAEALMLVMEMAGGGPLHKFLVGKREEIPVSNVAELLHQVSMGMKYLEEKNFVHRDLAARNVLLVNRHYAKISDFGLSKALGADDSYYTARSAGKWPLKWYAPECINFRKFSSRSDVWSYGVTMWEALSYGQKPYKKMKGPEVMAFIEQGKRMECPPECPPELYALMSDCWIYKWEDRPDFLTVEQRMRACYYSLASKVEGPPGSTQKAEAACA
Sequence of NCK2 (Homo sapiens) (O43639 280-380): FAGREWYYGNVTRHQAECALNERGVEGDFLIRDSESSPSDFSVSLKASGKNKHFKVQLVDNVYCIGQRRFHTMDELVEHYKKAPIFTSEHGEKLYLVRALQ
Sequence of TXK (Homo sapiens) (P42681 145-251): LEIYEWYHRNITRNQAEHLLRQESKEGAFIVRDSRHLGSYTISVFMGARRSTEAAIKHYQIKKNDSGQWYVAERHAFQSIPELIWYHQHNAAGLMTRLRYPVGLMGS
Sequence of RASA1-NC (Homo sapiens) (P20936 176-446): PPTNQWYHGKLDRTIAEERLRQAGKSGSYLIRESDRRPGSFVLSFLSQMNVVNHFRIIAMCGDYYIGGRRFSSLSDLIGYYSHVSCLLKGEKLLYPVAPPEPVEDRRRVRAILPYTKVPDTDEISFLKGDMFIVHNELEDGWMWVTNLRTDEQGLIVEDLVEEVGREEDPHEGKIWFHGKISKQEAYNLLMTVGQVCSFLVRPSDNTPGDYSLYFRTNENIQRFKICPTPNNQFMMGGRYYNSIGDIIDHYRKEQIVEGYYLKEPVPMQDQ
Sequence of RASA1-N (Homo sapiens) (P20936 176-446): as above
Sequence of GRB10 (Homo sapiens) (Q13322 488-579): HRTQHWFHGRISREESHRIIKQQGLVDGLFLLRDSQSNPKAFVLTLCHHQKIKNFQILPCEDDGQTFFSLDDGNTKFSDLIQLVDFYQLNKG
Sequence of SHF (Homo sapiens) (Q7M4L6 318-423): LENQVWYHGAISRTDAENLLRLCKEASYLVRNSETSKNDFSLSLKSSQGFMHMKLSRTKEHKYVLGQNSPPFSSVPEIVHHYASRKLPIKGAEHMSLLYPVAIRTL
Sequence of PTPN6-C (Homo sapiens) (P29350 1-218): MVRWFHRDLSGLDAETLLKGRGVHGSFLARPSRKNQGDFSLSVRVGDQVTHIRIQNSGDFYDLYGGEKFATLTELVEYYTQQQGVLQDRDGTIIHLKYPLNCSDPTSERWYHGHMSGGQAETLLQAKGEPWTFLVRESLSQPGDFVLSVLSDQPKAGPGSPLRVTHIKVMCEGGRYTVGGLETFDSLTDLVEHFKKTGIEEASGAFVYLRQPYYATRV
Sequence of VAV2 (Homo sapiens) (P52735 668-772): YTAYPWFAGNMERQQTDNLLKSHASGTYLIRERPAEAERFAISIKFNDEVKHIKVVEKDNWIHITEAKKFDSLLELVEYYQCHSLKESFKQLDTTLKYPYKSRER
Sequence of SLA (Homo sapiens) (Q13239 79-180): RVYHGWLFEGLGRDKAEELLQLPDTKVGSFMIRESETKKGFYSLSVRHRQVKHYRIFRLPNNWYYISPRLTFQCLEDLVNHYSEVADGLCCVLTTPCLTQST
Sequence of LYN (Homo sapiens) (P07948 124-231): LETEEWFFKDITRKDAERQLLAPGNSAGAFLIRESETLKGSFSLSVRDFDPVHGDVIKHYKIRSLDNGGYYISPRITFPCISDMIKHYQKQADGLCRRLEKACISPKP
Sequence of SH2D2A SH2 domain (human) (Q9NP31 95-186): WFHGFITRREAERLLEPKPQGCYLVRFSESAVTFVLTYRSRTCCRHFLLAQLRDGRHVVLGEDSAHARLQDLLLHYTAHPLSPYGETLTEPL
Sequence of BLK (Homo sapiens) (P51451 119-225): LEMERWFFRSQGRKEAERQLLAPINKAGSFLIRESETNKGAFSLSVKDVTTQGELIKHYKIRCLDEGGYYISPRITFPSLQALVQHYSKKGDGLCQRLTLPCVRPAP

Substance: …pYLVPQQGF
apparent Kd (screen) (BLK (Homo sapiens)): 597 nM | apparent Kd (screen) (VAV2 (Homo sapiens)): 2000 nM | apparent Kd (screen) (PIK3R3-NC (Homo sapiens)): 527 nM | apparent Kd (screen) (RASA1-NC (Homo sapiens)): 1770 nM | apparent Kd (screen) (PTPN6-C (Homo sapiens)): 2000 nM

Substance: …pYLIPQQGFd
apparent Kd (screen) (NCK2 (Homo sapiens)): 2000 nM

Substance: …pYEEMRAFQ
apparent Kd (screen) (PLCG1-NC (Homo sapiens) [1]): 499 nM | apparent Kd (screen) (SYK-NC (Homo sapiens)): 1100 nM | apparent Kd (screen) (TENC1 (Homo sapiens) [2]): 2000 nM | apparent Kd (screen) (LYN (Homo sapiens)): 340 nM

pKd [3]: 6.39 | pKd [4]: 6.23 | pKd (GRAP2 SH2 domain (human)): 6.09 and 5.87 | pKd [5]: 6.75 and 6.40 | pKd [6]: 6.52 and 6.22 | pKd [7]: 6.90 and 6.42 | pKd [8]: 5.93 | pKd (NCK1 SH2 domain (human)): 6.24 and 6.19 | pKd (BLK SH2 domain (human)): 6.77 and 6.27
Substance: ErbB4 pY1262 phosphopeptide, rhodamine-labelled, for protein microarrays

Substance: …pYWDQDPPE
apparent Kd (screen) (RASA1-N (Homo sapiens)): 504 nM | apparent Kd (screen) (PLCG1-NC (Homo sapiens) [9]): 1780 nM | apparent Kd (screen) (SLA (Homo sapiens)): 2000 nM | apparent Kd (screen) (TXK (Homo sapiens)): 2000 nM | apparent Kd (screen) (SHF (Homo sapiens)): 586 nM | apparent Kd (screen) (GRB10 (Homo sapiens)): 486 nM | apparent Kd (screen) (TENC1 (Homo sapiens) [10]): 843 nM
